Values quoted from earlier work in publication PMC3733499 (Thrombosis and haemostasis, 2013).

T1: FVa (Homo sapiens, UniProt P07225)
T1 sequence (P07225 42-676): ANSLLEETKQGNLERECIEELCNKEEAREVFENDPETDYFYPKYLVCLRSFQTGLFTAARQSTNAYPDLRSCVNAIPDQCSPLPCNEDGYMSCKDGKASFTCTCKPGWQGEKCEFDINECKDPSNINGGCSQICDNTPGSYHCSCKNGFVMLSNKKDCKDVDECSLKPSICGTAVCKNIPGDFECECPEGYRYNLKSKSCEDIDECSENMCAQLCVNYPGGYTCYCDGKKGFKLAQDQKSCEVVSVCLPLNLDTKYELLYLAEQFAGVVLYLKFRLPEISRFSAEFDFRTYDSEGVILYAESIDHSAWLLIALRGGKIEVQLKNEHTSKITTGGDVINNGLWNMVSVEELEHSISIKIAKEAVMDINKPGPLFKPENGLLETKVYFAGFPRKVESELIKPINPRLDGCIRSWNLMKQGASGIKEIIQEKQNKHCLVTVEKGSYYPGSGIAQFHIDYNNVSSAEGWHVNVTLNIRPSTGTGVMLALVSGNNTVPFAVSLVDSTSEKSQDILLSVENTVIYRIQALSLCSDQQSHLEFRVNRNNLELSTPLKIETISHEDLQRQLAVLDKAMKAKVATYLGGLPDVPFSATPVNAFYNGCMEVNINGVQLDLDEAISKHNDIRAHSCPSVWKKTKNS

B1: K155E PS: recombinant K155E PS, prevalent Japanese mutation (protein, UniProt P07225 42-676, looked up, variant K155E)
Vitamin K-dependent protein S: ANSLLEETKQGNLERECIEELCNKEEAREVFENDPETDYFYPKYLVCLRSFQTGLFTAARQSTNAYPDLRSCVNAIPDQCSPLPCNEDGYMSCKDGKASFTCTCKPGWQGEKCEFDINECKDPSNINGGCSQICDNTPGSYHCSCKNGFVMLSNEKDCKDVDECSLKPSICGTAVCKNIPGDFECECPEGYRYNLKSKSCEDIDECSENMCAQLCVNYPGGYTCYCDGKKGFKLAQDQKSCEVVSVCLPLNLDTKYELLYLAEQFAGVVLYLKFRLPEISRFSAEFDFRTYDSEGVILYAESIDHSAWLLIALRGGKIEVQLKNEHTSKITTGGDVINNGLWNMVSVEELEHSISIKIAKEAVMDINKPGPLFKPENGLLETKVYFAGFPRKVESELIKPINPRLDGCIRSWNLMKQGASGIKEIIQEKQNKHCLVTVEKGSYYPGSGIAQFHIDYNNVSSAEGWHVNVTLNIRPSTGTGVMLALVSGNNTVPFAVSLVDSTSEKSQDILLSVENTVIYRIQALSLCSDQQSHLEFRVNRNNLELSTPLKIETISHEDLQRQLAVLDKAMKAKVATYLGGLPDVPFSATPVNAFYNGCMEVNINGVQLDLDEAISKHNDIRAHSCPSVWKKTKNS

Columns and labels:
[1] = biological target: prothrombinase (FXa/FVa/PL) (Homo sapiens, UniProt P00742+P12259); conditions: only in the presence of FVa; ref [19]; cited from earlier work
prothrombinase (FXa/FVa/PL), sequence (P12259 29-737 limits assumed): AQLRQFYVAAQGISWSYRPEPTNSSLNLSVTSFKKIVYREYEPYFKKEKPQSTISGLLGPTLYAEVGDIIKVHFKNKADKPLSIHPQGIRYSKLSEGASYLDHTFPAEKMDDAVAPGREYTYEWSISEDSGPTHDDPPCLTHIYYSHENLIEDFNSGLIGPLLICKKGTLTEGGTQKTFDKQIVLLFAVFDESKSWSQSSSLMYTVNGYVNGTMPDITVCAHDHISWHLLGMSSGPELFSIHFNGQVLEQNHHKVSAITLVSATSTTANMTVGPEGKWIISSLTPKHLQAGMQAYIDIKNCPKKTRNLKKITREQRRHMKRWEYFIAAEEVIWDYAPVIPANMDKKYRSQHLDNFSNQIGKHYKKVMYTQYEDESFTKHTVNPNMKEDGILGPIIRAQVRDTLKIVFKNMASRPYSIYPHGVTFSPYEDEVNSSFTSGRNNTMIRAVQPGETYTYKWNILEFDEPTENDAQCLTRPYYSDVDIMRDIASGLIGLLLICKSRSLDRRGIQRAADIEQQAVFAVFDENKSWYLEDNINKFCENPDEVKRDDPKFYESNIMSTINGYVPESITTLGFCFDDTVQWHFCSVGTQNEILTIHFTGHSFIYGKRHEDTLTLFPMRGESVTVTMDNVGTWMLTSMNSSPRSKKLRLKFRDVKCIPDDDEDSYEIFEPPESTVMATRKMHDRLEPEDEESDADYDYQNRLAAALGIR
prothrombinase (FXa/FVa/PL), sequence (P12259 1574-2224 limits assumed): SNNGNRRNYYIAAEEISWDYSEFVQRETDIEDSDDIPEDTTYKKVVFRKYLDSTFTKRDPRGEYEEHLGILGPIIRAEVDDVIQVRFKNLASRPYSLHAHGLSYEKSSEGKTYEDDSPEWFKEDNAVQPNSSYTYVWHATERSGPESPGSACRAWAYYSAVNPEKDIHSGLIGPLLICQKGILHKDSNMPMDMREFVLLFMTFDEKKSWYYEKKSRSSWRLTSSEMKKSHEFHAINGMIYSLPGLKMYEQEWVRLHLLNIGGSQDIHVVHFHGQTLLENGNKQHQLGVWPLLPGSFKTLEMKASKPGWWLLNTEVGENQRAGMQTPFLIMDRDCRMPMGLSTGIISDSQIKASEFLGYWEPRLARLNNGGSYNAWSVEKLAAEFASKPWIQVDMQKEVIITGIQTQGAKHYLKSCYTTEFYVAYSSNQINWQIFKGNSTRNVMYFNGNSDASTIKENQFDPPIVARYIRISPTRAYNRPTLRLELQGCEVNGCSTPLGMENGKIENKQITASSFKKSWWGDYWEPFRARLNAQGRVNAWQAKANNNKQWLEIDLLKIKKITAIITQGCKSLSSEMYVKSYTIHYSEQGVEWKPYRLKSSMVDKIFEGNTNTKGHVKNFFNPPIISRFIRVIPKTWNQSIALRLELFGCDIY
prothrombinase (FXa/FVa/PL), sequence (P00742 41-179 partner limits assumed): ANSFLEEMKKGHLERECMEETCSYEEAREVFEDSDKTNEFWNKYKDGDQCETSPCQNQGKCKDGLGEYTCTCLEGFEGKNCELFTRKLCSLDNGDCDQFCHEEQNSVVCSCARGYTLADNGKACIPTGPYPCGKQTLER
prothrombinase (FXa/FVa/PL), sequence (P00742 235-488 partner limits assumed): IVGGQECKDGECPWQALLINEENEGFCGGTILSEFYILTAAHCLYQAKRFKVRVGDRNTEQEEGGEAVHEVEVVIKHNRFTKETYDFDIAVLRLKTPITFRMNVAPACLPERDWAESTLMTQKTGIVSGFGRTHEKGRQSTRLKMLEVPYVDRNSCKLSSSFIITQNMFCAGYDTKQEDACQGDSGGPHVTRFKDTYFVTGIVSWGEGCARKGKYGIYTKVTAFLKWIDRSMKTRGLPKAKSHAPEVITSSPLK

[2] = biological target: T1, FVa; conditions: ref [19]; cited from earlier work
[3] = system: FXa binding to FVa; conditions: ref [19]; cited from earlier work
[4] = system: FXa; conditions: recombinant; ref [39]; cited from earlier work
[5] = system: FVa; conditions: recombinant; ref [39]; cited from earlier work
[6] = system: APC; conditions: recombinant; ref [39]; cited from earlier work

| Molecule | Inhibition of prothrombinase activity [1] | Inhibition of PS binding to FVa [2] | Competition with FXa for a binding site on FVa [3] | Binding to FXa [4] | Binding to FVa [5] | Binding to APC [6] |
| --- | --- | --- | --- | --- | --- | --- |
| 621–635 peptide: peptide representing PS residues 621–635 near the C-terminus (RAHSCPSVWKKTKNS; UniProt P07225 662-676, looked up, fragment) | inhibited prothrombinase activity only in the presence of FVa | inhibited PS binding to FVa | appeared to compete with FXa for a binding site on FVa | – | – | – |
| B1 | – | – | – | defective binding to FXa and to APC | normal binding to FVa | defective binding to FXa and to APC |
